Reference: the supplement of paper PMC10065799, “High-throughput profiling of sequence recognition by tyrosine kinases and SH2 domains using bacterial peptide display” (eLife, 2023)

target: MERTK (UniProt Q12866); assay: phosphorylation enrichment, bacterial display (enrichment ratio); higher = better substrate or ligand; peptides without Tyr show the background
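Note: 11-residue human phosphosite peptides and single-mutation variants displayed on the E. coli surface, counted by deep sequencing, each peptide's frequency after selection divided by its frequency in the unselected input library; frequency after pTyr selection over input frequency; kinase dosed for 20-30% of maximal phosphorylation in three min.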

Chain of MERTK (Q12866 whole entry, looked up): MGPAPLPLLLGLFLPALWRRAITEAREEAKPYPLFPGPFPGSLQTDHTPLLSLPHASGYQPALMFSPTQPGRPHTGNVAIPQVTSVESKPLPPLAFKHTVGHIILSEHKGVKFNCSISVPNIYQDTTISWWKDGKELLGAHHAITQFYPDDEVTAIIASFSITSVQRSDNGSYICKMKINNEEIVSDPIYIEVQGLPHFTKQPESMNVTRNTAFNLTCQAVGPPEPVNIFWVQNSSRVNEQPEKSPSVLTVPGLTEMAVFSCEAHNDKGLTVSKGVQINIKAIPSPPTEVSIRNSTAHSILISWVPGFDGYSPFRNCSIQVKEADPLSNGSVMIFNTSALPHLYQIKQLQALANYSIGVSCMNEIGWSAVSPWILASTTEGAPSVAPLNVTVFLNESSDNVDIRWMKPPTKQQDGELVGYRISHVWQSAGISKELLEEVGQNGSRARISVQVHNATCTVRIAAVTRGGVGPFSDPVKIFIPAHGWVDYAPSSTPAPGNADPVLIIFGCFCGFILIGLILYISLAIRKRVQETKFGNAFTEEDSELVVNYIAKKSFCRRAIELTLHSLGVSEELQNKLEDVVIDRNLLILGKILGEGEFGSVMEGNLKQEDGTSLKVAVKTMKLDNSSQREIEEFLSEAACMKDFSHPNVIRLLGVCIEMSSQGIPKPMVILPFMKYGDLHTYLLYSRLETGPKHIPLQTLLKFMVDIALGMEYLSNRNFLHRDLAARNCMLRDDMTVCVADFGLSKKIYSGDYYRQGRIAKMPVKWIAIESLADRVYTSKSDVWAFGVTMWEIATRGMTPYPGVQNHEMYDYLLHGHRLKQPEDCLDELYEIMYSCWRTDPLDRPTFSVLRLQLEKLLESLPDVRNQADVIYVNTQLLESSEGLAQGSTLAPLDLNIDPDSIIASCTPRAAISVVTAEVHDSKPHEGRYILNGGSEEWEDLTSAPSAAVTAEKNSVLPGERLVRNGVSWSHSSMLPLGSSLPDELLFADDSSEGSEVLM

In order of falling phosphorylation enrichment:
1. VYSTDYYRVGG [NTRK2_Y706]  11
2. QRHYVYYYSYL [PTEN_Y176_R173H]  8.74
3. CKSIHYDLVFL [COL22A1_Y37_V35I]  1.51
4. SNKELYEKFMI  1.51
5. RSSKRYLKTRS [LPL_Y329_M328R]  1.24
6. QDRTYYESVRT [SPEN_Y633]  1.21
7. CTTIHYNYMCY [TP53_Y234_N239Y]  0.804
8. LEPGIYIPEDD [XPNPEP3_Y455_I450L]  0.653
9. TESNNYIFTTL [FAM83B_Y637_K640T_YF]  0.612
10. QTSSNYDDAMQ [ZNF281_Y531_I527T]  0.58
11. LILENYGADID [DNAH5_Y596]  0.574
12. TRNREYDDIDD [TTYH2_Y424_D423E]  0.559
13. KNCFKYFMSDD [ATRX_Y203_YF]  0.556
14. YRDMDYRSYPR [RBM10_Y41]  0.519
15. LAVVDYMRRQK [ATM_Y1915]  0.513
16. IPQEEYKATGL  0.492
17. GCKNRYDKDKP [THAP1_Y14]  0.482
18. VRSNHYAPEED [TJP1_Y1346_D1347A]  0.462
19. SENPKCPEVGD [TMEM43_Y233_Y233C]  0.461
20. CHKCTYKVTGL  0.453
21. DEQKKYFNAMK [SCN5A_Y1494_E1489D_YF]  0.448
22. VIEQSYNETWL [SLC2A4_Y56]  0.436
23. GLDGSYLLRYS [SH2D1A_Y29_D33Y]  0.434
24. FSIDFYRVGGH [NTRK2_Y707_T704I_YF]  0.429
25. VVGMLYVGRLP [LAMA2_Y2886_G2889R]  0.426
26. SVKVFYKKCWF [EPHA7_Y202_S207F_YF]  0.425
27. RSSPTYRDCLQ [LARGE2_Y682]  0.42
28. SVVGPYEPPEV [TP53_Y220_V218G]  0.409
29. ACQGKYTPSSQ [ALDOA_Y343_G347S]  0.404
30. GKVADYIPQLA [GLS_Y249]  0.396
31. DRKRQCELLKL [KIF4B_Y684_Y684C]  0.356
32. AYQGKYTPSGQ [ALDOA_Y343_C339Y]  0.337
33. GRMLQYLTVND [PPFIBP2_Y663_R658G]  0.319

system: AncSZ; assay: as above

In order of falling phosphorylation enrichment:
1. VYSTDYYRVGG [NTRK2_Y706]  2.94
2. LILENYGADID [DNAH5_Y596]  1.84
3. QRHYVYYYSYL [PTEN_Y176_R173H]  1.79
4. LEPGIYIPEDD [XPNPEP3_Y455_I450L]  1.58
5. CKSIHYDLVFL [COL22A1_Y37_V35I]  1.49
6. RSSPTYRDCLQ [LARGE2_Y682]  1.45
7. RSSKRYLKTRS [LPL_Y329_M328R]  1.4
8. KNCFKYFMSDD [ATRX_Y203_YF]  1.37
9. VVGMLYVGRLP [LAMA2_Y2886_G2889R]  1.22
10. FSIDFYRVGGH [NTRK2_Y707_T704I_YF]  1.19
11. VIEQSYNETWL [SLC2A4_Y56]  1.17
12. SVVGPYEPPEV [TP53_Y220_V218G]  1.14
13. TESNNYIFTTL [FAM83B_Y637_K640T_YF]  1.12
14. SVKVFYKKCWF [EPHA7_Y202_S207F_YF]  1.06
15. QTSSNYDDAMQ [ZNF281_Y531_I527T]  1.06
16. QDRTYYESVRT [SPEN_Y633]  0.996
17. SENPKCPEVGD [TMEM43_Y233_Y233C]  0.971
18. CTTIHYNYMCY [TP53_Y234_N239Y]  0.946
19. VRSNHYAPEED [TJP1_Y1346_D1347A]  0.941
20. TRNREYDDIDD [TTYH2_Y424_D423E]  0.904
21. SNKELYEKFMI  0.859
22. IPQEEYKATGL  0.84
23. GRMLQYLTVND [PPFIBP2_Y663_R658G]  0.792
24. GLDGSYLLRYS [SH2D1A_Y29_D33Y]  0.685
25. DEQKKYFNAMK [SCN5A_Y1494_E1489D_YF]  0.68
26. LAVVDYMRRQK [ATM_Y1915]  0.674
27. GCKNRYDKDKP [THAP1_Y14]  0.655
28. DRKRQCELLKL [KIF4B_Y684_Y684C]  0.646
29. YRDMDYRSYPR [RBM10_Y41]  0.64
30. GKVADYIPQLA [GLS_Y249]  0.634
31. CHKCTYKVTGL  0.622
32. ACQGKYTPSSQ [ALDOA_Y343_G347S]  0.542
33. AYQGKYTPSGQ [ALDOA_Y343_C339Y]  0.383

system: c-Abl (mouse); assay: as above

In order of rising phosphorylation enrichment:
1. AYQGKYTPSGQ [ALDOA_Y343_C339Y]  0.384
2. ACQGKYTPSSQ [ALDOA_Y343_G347S]  0.392
3. QTSSNYDDAMQ [ZNF281_Y531_I527T]  0.476
4. GKVADYIPQLA [GLS_Y249]  0.483
5. CHKCTYKVTGL  0.523
6. RSSPTYRDCLQ [LARGE2_Y682]  0.539
7. TRNREYDDIDD [TTYH2_Y424_D423E]  0.54
8. GLDGSYLLRYS [SH2D1A_Y29_D33Y]  0.542
9. SNKELYEKFMI  0.559
10. GRMLQYLTVND [PPFIBP2_Y663_R658G]  0.593
11. LAVVDYMRRQK [ATM_Y1915]  0.604
12. YRDMDYRSYPR [RBM10_Y41]  0.607
13. QDRTYYESVRT [SPEN_Y633]  0.61
14. VVGMLYVGRLP [LAMA2_Y2886_G2889R]  0.654
15. DRKRQCELLKL [KIF4B_Y684_Y684C]  0.679
16. VRSNHYAPEED [TJP1_Y1346_D1347A]  0.728
17. SVVGPYEPPEV [TP53_Y220_V218G]  0.728
18. GCKNRYDKDKP [THAP1_Y14]  0.752
19. IPQEEYKATGL  0.776
20. CTTIHYNYMCY [TP53_Y234_N239Y]  0.78
21. VIEQSYNETWL [SLC2A4_Y56]  0.803
22. DEQKKYFNAMK [SCN5A_Y1494_E1489D_YF]  0.815
23. SVKVFYKKCWF [EPHA7_Y202_S207F_YF]  0.816
24. FSIDFYRVGGH [NTRK2_Y707_T704I_YF]  0.837
25. LILENYGADID [DNAH5_Y596]  0.841
26. CKSIHYDLVFL [COL22A1_Y37_V35I]  0.936
27. LEPGIYIPEDD [XPNPEP3_Y455_I450L]  0.974
28. TESNNYIFTTL [FAM83B_Y637_K640T_YF]  0.982
29. KNCFKYFMSDD [ATRX_Y203_YF]  1.02
30. RSSKRYLKTRS [LPL_Y329_M328R]  1.03
31. SENPKCPEVGD [TMEM43_Y233_Y233C]  1.24
32. VYSTDYYRVGG [NTRK2_Y706]  1.49
33. QRHYVYYYSYL [PTEN_Y176_R173H]  1.84

system: Fer (mouse); assay: as above

In order of falling phosphorylation enrichment:
1. SNKELYEKFMI  10.2
2. CKSIHYDLVFL [COL22A1_Y37_V35I]  8.93
3. QDRTYYESVRT [SPEN_Y633]  4.79
4. QRHYVYYYSYL [PTEN_Y176_R173H]  1.29
5. CTTIHYNYMCY [TP53_Y234_N239Y]  1.25
6. VIEQSYNETWL [SLC2A4_Y56]  1.25
7. VYSTDYYRVGG [NTRK2_Y706]  1.22
8. RSSKRYLKTRS [LPL_Y329_M328R]  0.852
9. LILENYGADID [DNAH5_Y596]  0.809
10. GCKNRYDKDKP [THAP1_Y14]  0.745
11. QTSSNYDDAMQ [ZNF281_Y531_I527T]  0.741
12. TESNNYIFTTL [FAM83B_Y637_K640T_YF]  0.722
13. LEPGIYIPEDD [XPNPEP3_Y455_I450L]  0.709
14. KNCFKYFMSDD [ATRX_Y203_YF]  0.589
15. VVGMLYVGRLP [LAMA2_Y2886_G2889R]  0.552
16. SVKVFYKKCWF [EPHA7_Y202_S207F_YF]  0.544
17. TRNREYDDIDD [TTYH2_Y424_D423E]  0.533
18. IPQEEYKATGL  0.531
19. SVVGPYEPPEV [TP53_Y220_V218G]  0.498
20. VRSNHYAPEED [TJP1_Y1346_D1347A]  0.469
21. SENPKCPEVGD [TMEM43_Y233_Y233C]  0.467
22. FSIDFYRVGGH [NTRK2_Y707_T704I_YF]  0.466
23. RSSPTYRDCLQ [LARGE2_Y682]  0.458
24. GKVADYIPQLA [GLS_Y249]  0.453
25. DEQKKYFNAMK [SCN5A_Y1494_E1489D_YF]  0.437
26. DRKRQCELLKL [KIF4B_Y684_Y684C]  0.432
27. ACQGKYTPSSQ [ALDOA_Y343_G347S]  0.425
28. GRMLQYLTVND [PPFIBP2_Y663_R658G]  0.42
29. CHKCTYKVTGL  0.419
30. GLDGSYLLRYS [SH2D1A_Y29_D33Y]  0.415
31. YRDMDYRSYPR [RBM10_Y41]  0.415
32. LAVVDYMRRQK [ATM_Y1915]  0.374
33. AYQGKYTPSGQ [ALDOA_Y343_C339Y]  0.345
